The text below walks through data of patent US12576138B2, “Compounds and methods for the immobilization of myostatin-inhibitors on the extracellular matrix by transglutaminase” (JULIUS-MAXIMILIANS-UNIVERSITÄT WÜRZBURG, priority 2018, dated 2026).

In test [1] the target is T1, myostatin (Homo sapiens, UniProt O14793).
T1 sequence (O14793 267-375): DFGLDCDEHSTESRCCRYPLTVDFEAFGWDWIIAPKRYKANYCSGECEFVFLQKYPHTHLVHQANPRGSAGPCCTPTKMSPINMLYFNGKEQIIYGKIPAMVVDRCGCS
Kind of test: Capture of myostatin by ECM-immobilized MI, measured by ELISA. Format: binding. An excerpt: (§1) MI-D chains were immobilized on ECM with high efficacy (FIG. 4A) and the co-localization with fibronectin confirmed using confocal laser scanning microscopy (FIG. 4B). Bioactivity of immobilized MI was confirmed by capturing myostatin using ELISA and consequently the restoration of mouse myoblast cells to differentiate in presence of myostatin (FIG. 4C, D).
(§2) FIG. 4: Immobilization of the MI-D chain on decellularized ECM. (A) Coupling efficacy in presence and absence of TG. (B) Confocal Laser Scanning Microscopy images of MI labeled with Atto594-maleimide on ECM in presence (panels A) and absence (panels B) of FXIIIa. […] (C) Amount of free myostatin after exposure to ECM with immobilized MI under different conditions measured by ELISA. (D) Bioactivity of MI immobilized on ECM determined by differentiation of myoblasts in presence of myostatin-containing medium and MI bound on ECM in presence or absence of TG.
In general terms: ELISA stands for enzyme-linked immunosorbent assay.

For test [2], the target named is T2, fibronectin (Mus musculus, UniProt P11276).
T2 construct: The ECM was produced by NIH3T3 fibroblasts and on day 6 decellularized; endogenous in cells; host or cells: NIH3T3 fibroblasts (decellularized ECM)
Description: FXIIIa-mediated immobilization of MI-D chain on decellularized cell-derived ECM. It counts as biochemical.
Text: As proof of concept, the MI with TG tag (“MI-D chain”) was immobilized onto cell derived, isolated extracellular matrix (ECM). The ECM was produced by NIH3T3 fibroblasts and on day 6 decellularized and washed to remove cell debris and adsorbed proteins.
as §1, §2

In test [3] the test system is mouse myoblast cells. Kind of test: Differentiation of myoblasts in presence of myostatin and MI bound on ECM. It counts as cell-based. The following applies: MI immobilized on ECM.
Text: as §1, §2

Test [4] has as its target glutamine substrate derived from α-2 plasmin inhibitor (Homo sapiens, UniProt P08697). Description: Transglutaminase coupling of the isolated IGF-I D chain to a glutamine substrate. Format: biochemical. Here is the method: Starting off by examination of the specificity and efficacy of the IGF-I D chain, the isolated sequence (PLKPAKSA) was coupled to a glutamine substrate derived from α-2 plasmin inhibitor, achieving >90% conversion within less than 10 minutes.

Test [5] has as its target T1, myostatin. Description: Bioactivity of released MI: myoblast proliferation in presence of myostatin. The conditions noted are these: after release from ECM triggered by MMPs. It counts as cell-based. An excerpt:
If a flaring inflammation in the wounded tissue occurs, accompanied by invasion of macrophages and release of MMPs, the inter-positioned PCL is cleaved, releasing the MI and instantly inhibiting the flaring inflammation and preventing apoptosis of surrounding cartilage and muscle cells.
FIG. 5: (A) Release kinetics of MI modified with a PCL—responding to elevated MMP levels—and the D chain for immobilization on ECM (“MI1”) in comparison to MI modified with the D chain at the C-terminus for direct immobilization on ECM (“MI2”). The MI was labelled with a fluorescent dye before immobilization on the ECM and the release of MI exposed to MMP-1, -8, -9 and -13 for different periods of time was analyzed by HPLC with fluorescence detection. (B) Bioactivity of released MI determined by myoblast proliferation in presence of myostatin and MI after release from ECM triggered by MMPs.

T2 sequence (P11276 33-2477): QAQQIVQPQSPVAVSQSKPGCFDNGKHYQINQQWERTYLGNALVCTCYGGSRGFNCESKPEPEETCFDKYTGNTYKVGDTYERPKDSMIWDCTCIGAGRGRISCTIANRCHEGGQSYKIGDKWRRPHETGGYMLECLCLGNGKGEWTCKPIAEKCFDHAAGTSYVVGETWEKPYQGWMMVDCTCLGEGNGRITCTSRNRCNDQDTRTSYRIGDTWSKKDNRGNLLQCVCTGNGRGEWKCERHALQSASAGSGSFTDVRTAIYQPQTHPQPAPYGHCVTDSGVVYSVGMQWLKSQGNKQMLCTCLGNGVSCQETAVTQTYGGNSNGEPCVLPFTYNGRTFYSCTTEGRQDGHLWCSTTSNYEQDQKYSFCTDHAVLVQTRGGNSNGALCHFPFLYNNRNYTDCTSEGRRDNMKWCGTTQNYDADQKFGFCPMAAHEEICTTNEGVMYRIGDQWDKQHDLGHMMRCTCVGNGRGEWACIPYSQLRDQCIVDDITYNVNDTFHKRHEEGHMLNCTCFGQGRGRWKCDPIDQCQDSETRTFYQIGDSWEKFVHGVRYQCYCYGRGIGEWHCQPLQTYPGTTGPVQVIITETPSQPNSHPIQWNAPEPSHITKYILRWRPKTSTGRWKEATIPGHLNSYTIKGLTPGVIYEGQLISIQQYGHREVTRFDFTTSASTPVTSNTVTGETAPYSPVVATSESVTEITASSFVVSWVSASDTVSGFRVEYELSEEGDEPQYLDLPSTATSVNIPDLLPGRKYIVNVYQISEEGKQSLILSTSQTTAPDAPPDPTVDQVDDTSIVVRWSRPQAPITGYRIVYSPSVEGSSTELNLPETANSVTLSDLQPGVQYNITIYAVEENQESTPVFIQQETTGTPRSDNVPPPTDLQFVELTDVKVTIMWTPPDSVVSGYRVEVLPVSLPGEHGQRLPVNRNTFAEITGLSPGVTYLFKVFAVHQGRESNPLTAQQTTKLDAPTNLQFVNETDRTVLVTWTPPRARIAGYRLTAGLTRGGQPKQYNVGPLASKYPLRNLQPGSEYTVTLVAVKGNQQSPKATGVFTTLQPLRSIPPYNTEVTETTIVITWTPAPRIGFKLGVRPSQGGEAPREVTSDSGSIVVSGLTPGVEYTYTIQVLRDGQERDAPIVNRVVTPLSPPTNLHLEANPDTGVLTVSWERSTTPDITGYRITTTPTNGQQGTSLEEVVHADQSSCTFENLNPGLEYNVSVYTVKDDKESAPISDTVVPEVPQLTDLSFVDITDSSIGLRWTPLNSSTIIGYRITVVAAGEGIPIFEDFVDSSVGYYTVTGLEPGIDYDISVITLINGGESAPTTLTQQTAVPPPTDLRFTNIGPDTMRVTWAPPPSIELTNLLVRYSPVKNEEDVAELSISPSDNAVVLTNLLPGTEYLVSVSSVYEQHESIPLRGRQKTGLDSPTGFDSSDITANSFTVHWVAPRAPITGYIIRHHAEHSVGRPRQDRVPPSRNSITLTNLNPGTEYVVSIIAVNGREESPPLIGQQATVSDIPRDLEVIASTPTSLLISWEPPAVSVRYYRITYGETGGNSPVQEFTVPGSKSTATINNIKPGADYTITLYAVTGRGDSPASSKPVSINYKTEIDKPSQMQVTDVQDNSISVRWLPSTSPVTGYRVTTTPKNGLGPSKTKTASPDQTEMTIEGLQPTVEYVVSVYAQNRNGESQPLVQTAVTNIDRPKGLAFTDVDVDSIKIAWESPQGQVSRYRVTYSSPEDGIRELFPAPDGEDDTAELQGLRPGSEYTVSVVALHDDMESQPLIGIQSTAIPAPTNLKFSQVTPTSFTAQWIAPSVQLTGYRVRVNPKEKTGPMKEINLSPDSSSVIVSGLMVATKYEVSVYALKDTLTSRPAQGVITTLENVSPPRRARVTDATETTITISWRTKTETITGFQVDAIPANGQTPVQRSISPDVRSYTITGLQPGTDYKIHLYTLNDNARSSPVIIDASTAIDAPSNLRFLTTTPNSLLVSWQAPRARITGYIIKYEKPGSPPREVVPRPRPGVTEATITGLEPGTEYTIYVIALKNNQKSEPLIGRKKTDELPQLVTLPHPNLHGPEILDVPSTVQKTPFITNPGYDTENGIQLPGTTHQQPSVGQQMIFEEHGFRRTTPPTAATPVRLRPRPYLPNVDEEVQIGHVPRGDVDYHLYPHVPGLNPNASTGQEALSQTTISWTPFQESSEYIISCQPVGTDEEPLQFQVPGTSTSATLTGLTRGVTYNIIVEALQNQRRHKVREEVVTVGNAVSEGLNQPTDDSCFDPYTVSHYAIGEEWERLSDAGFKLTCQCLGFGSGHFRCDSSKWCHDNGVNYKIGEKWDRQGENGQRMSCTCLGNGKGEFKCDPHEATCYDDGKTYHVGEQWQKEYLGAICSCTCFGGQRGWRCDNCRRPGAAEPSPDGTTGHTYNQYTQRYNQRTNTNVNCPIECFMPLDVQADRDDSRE

For the substance “MI-D chain: myostatin inhibitor with the IGF-I D chain attached at the C-terminus for direct immobilization on ECM (VATQGQCTRWPWMCPPQGWGPLKPAKSA)”, the “bioactivity of immobilized MI by capturing myostatin” value in test [1] (ELISA, MI immobilized on ECM) is on record as “confirmed”. Besides, in test [1] (immobilized on ECM), the “capacity to bind and inhibit myostatin after immobilization on N-terminus of fibronectin” value is recorded as “without impairment”. Moreover, in test [2] (confocal laser scanning microscopy), the co-localization with fibronectin entry is on record as “confirmed”. Moreover, the “efficacy of immobilization on ECM” value in test [2] (decellularized ECM from NIH3T3 fibroblasts, FXIIIa) was “high efficacy”. Besides, the “differentiation of mouse myoblast cells in presence of myostatin” value in test [3] is “restoration”.

“PLKPAKSA (listed as Homo sapiens) [IGF-I D chain]”: in test [4] (coupling to glutamine substrate derived from α-2 plasmin inhibitor), the “time to reach >90% conversion” value is given as “less than 10 minutes”. Besides, in test [4] (within less than 10 minutes), the “conversion (coupling to glutamine substrate)” value is greater than 90%.

For “VATQGQCTRWPWMCPPQGWG (listed as Homo sapiens) [MI, in b165 the MI released from ECM by MMPs]”, in test [5], the “bioactivity of released MI in terms of myostatin inhibition” value is “bioactive”.
